Patent US20250177503A1, “COMPOSITIONS AND METHODS FOR TREATING AUTOIMMUNE DISORDERS” (THE REGENTS OF THE UNIVERSITY OF MICHIGAN, priority 2022, published 2025)

Test system: CD4+CD25+Foxp3+T regulatory cells (Tregs)
Test: Example III: dosing regimen optimisation, ND-OVA + IL-2/IC vs ND-OVA + wtIL-2, flow cytometry of peripheral blood CD4+ T cells
Type: in vivo, C57BL/6 mice
Settings: summary of findings
Method: Animals were cared for following federal, state, and local guidelines. All work performed on animals was in accordance with and approved by Institutional Animal Care & Use Committee (IACUC) at the University of Michigan, Ann Arbor. Seven-week-old female C57BL/6 mice were randomly divided into 6 groups with 5 mice in each group. For Group 1 (ND-OVA_D−3,+7+IL2/IC_D3,4,5): 0.1 mL of ND-OVA (containing 0.1 mg OVA-II peptide) was injected into each mouse subcutaneously at the tail base at Day −3 and Day 7; 0.1 mL IL2/IC (containing 1 μg murine IL-2 and […] IL-2 mAb) was injected into each mouse intraperitoneally (i.p.) at Days 0, 1, 2, and Days 10, 11, 12. For Group 2 (ND-OVA_D−4,+6+IL2/IC_D4,5,6): 0.1 mL of ND-OVA (containing 0.1 mg OVA-II peptide) was injected into each mouse subcutaneously at the tail base at Day −4 and Day 6; 0.1 mL IL2/IC (containing […] murine IL-2 and 5 μg IL-2 mAb) was injected into each mouse intraperitoneally (i.p.) at Days 0, 1, 2, and Days 10, 11, 12. For Group 3 (ND-OVA_D−3,+7+IL2/IC_D3,4,5,6,7): 0.1 mL of ND-OVA (containing 0.1 mg OVA-II peptide) was injected into each mouse subcutaneously at the tail base at Day −3 and Day 7; 0.1 mL IL2 (containing 1 μg murine IL-2) was injected into each mouse intraperitoneally (i.p.) at Days 0, 1, 2, 3, 4 and Days 10, 11, 12, 13, 14. […]

B1: IL-2: recombinant murine IL-2 (wild type IL-2 protein) (protein, UniProt P04351 21-169, looked up)
Interleukin-2: APTSSSTSSSTAEAQQQQQQQQQQQQHLEQLLMDLQELLSRMENYRNLKLPRMLTFKFYLPKQATELKDLQCLEDELGPLRHVLDLTQSKSFQLEDAENFISNIRVTVVKLKGSDNTFECQFDDESATVVDFLRRWIAFCQSIISTSPQ
Question: B1 was tested. Which “expansion of total Tregs and antigen-specific Tregs” value did it give?
Answer: fails to expand
